Data published in publication PMC7139703, “Thiopurine Derivative-Induced Fpg/Nei DNA Glycosylase Inhibition: Structural, Dynamic and Functional Insights” (International Journal of Molecular Sciences, 2020).

Assays:
Experiment in all cases: EMSA
[1] = biological target: T1, LlFpg (Lactococcus lactis) (UniProt P42371); conditions: 8% DMSO, no inhibitor, complex C1 (1:1), N at position 7 of strand 1 = tetrahydrofuran (THF) abasic site analog, opposite C, EMSA: 0.1 nM probe, 25 mM HEPES/NaOH pH 7.5, 150 mM NaCl, 5% glycerol, 0.1 mg/mL BSA, 4 °C, 30 min, 10% native PAGE at 4 °C
T1 sequence: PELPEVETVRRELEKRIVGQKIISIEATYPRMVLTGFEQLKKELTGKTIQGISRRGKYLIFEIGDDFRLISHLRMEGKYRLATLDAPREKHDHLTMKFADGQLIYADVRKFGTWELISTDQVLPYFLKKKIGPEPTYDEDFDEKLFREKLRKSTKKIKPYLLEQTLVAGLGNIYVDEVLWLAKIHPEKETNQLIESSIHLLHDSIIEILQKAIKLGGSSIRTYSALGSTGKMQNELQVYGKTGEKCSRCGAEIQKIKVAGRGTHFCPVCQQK

[2] = biological target: ∆hNeil1 (truncated hNeil1) (human) (UniProt Q96FI4); conditions: 8% DMSO, no inhibitor, named hNeil1 in the sentence, N at position 7 of strand 1 = tetrahydrofuran (THF) abasic site analog, opposite C, EMSA: 0.1 nM probe, 25 mM HEPES/NaOH pH 7.5, 150 mM NaCl, 5% glycerol, 0.1 mg/mL BSA, 4 °C, 30 min, 10% native PAGE at 4 °C
mvNei1 (mimivirus) = conditions: N at position 7 of strand 1 = tetrahydrofuran (THF) abasic site analog, opposite C; EMSA: 0.1 nM probe, 25 mM HEPES/NaOH pH 7.5, 150 mM NaCl, 5% glycerol, 0.1 mg/mL BSA, 8% DMSO, 4 °C, 30 min; 10% native PAGE at 4 °C

Sequence of ∆hNeil1 (truncated hNeil1) (human) (Q96FI4 whole entry, the tested form may be a part): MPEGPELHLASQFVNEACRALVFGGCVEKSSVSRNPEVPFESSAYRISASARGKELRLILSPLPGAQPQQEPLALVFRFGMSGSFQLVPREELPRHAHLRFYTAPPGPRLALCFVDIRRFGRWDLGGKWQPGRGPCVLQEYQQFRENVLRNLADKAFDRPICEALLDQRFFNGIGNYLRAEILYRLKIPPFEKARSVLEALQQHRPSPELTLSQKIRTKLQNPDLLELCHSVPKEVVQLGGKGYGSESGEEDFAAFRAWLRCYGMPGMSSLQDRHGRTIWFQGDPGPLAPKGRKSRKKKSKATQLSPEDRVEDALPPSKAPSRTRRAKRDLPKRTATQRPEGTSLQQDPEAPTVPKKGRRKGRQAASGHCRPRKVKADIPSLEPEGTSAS

**Q.** Which results are given for “CTCTTTNTTTCTCG / GCGAGAAACAAAGA [14-mer THF:C]”?
**A.** K half [1]: 0.25 nM; K half [2]: 7 nM; K half (mvNei1 (mimivirus)): 5 nM
